Source: patent publication US20210107983A1 (Boehringer Ingelheim, published 2021)

B1: B7H6#21/CD3#1 (bispecific antibody, human IgG1, kappa, lambda, L234A L235A)
chain 1: DIQMTQSPSSLSASVGDRVTITCKASQNVGKYVAWYQQKPGKAPKSLIYSASNRYDGVPSRFSGSGSGTDFTLTISSLQPEDFATYFCQQYISYPLTFGAGTKLEIKRTVAAPSVFIFPPSDEQLKSGTASVVCLLNNFYPREAKVQWKVDNALQSGNSQESVTEQDSKDSTYSLSSTLTLSKADYEKHKVYACEVTHQGLSSPVTKSFNRGECGGGGSEGKSSGSGSESKSTEGKSSGSGSESKSTGGGGSQVQLVQSGAEVKKPGASVKVSCKASGYTFTSYWMNWMKQAPGQGLEWIGGIYLSGESTDYNEKFKGKVTMTVDTSTSTVYMELSSLRSEDTAVYYCTRRGDYFGDFWGQGTLVTVSSASTKGPSVFPLAPSSKSTSGGTAALGCLVKDYFPEPVTVSWNSGALTSGVHTFPAVLQSSGLYSLSSVVTVPSSSLGTQTYICNVNHKPSNTKVDKRVEPKSCDKTHTCPPCPAPEAAGGPSVFLFPPKPKDTLMISRTPEVTCVVVDVSHEDPEVKFNWYVDGVEVHNAKTKPREEQYNSTYRVVSVLTVLHQDWLNGKEYKCKVSNKALPAPIEKTISKAKGQPREPQVYTLPPSREEMTKNQVSLWCLVKGFYPSDIAVEWESNGQPENNYKTTPPVLDSDGSFFLYSKLTVDKSRWQQGNVFSCSVMHEALHNHYTQKSLSLSPG
chain 2: EAVVTQEPSLTVSPGGTVTLTCRSSTGAVTTSNYANWVQEKPGQLPRGLIGGTNKRAPWVPARFSGSLLGGKAALTLSGAQPEDEAEYFCALWYSNLWVFGGGTKLTVLGQPKAAPSVTLFPPSSEELQANKATLVCLISDFYPGAVKVAWKADGSPVNTGVETTTPSKQSNNKYAASSYLSLTPEQWKSHRSYSCQVTHEGSTVEKTVAPAECSGGGGSEGKSSGSGSESKSTEGKSSGSGSESKSTGGGGSEVQLVESGGGLVQPGGSLKLSCAASGFTFNTYAMNWVRQAPGKGLEWVARIRSKYNNYATYYADSVKDRFTISRDDSKNTAYLQMNNLKTEDTAVYYCVRHGNFGNSYVSWFAYWGQGTLVTVSAASTKGPSVFPLAPSSKSTSGGTAALGCLVKDYFPEPVTVSWNSGALTSGVHTFPAVLQSSGLYSLSSVVTVPSSSLGTQTYICNVNHKPSNTKVDKRVEPKSCDKTHTCPPCPAPEAAGGPSVFLFPPKPKDTLMISRTPEVTCVVVDVSHEDPEVKFNWYVDGVEVHNAKTKPREEQYNSTYRVVSVLTVLHQDWLNGKEYKCKVSNKALPAPIEKTISKAKGQPREPQVYTLPPSREEMTKNQVSLSCAVKGFYPSDIAVEWESNGQPENNYKTTPPVLDSDGSFFLVSKLTVDKSRWQQGNVFSCSVMHEALHNRFTQKSLSLSPG
notes: scFab-Fc heterodimer, one B7H6 chain and one CD3 chain
B2: B7H6#22/CD3#1 (bispecific antibody, human IgG1, kappa, lambda, L234A L235A)
chain 1: DIQMTQSPSSLSASVGDRVTITCKASQNVGKYVAWYQQKPGKAPKSLIYSASNRYDAVPSRFSGSGSGTDFTLTISSLQPEDFATYFCQQYISYPLTFGAGTKLEIKRTVAAPSVFIFPPSDEQLKSGTASVVCLLNNFYPREAKVQWKVDNALQSGNSQESVTEQDSKDSTYSLSSTLTLSKADYEKHKVYACEVTHQGLSSPVTKSFNRGECGGGGSEGKSSGSGSESKSTEGKSSGSGSESKSTGGGGSQVQLVQSGAEVKKPGASVKVSCKASGYTFTSYWMNWMKQAPGQGLEWIGGIYLSGDSTDYNEKFKGKVTMTVDTSTSTVYMELSSLRSEDTAVYYCTRRGDYFGDFWGQGTLVTVSSASTKGPSVFPLAPSSKSTSGGTAALGCLVKDYFPEPVTVSWNSGALTSGVHTFPAVLQSSGLYSLSSVVTVPSSSLGTQTYICNVNHKPSNTKVDKRVEPKSCDKTHTCPPCPAPEAAGGPSVFLFPPKPKDTLMISRTPEVTCVVVDVSHEDPEVKFNWYVDGVEVHNAKTKPREEQYNSTYRVVSVLTVLHQDWLNGKEYKCKVSNKALPAPIEKTISKAKGQPREPQVYTLPPSREEMTKNQVSLWCLVKGFYPSDIAVEWESNGQPENNYKTTPPVLDSDGSFFLYSKLTVDKSRWQQGNVFSCSVMHEALHNHYTQKSLSLSPG
chain 2: EAVVTQEPSLTVSPGGTVTLTCRSSTGAVTTSNYANWVQEKPGQLPRGLIGGTNKRAPWVPARFSGSLLGGKAALTLSGAQPEDEAEYFCALWYSNLWVFGGGTKLTVLGQPKAAPSVTLFPPSSEELQANKATLVCLISDFYPGAVKVAWKADGSPVNTGVETTTPSKQSNNKYAASSYLSLTPEQWKSHRSYSCQVTHEGSTVEKTVAPAECSGGGGSEGKSSGSGSESKSTEGKSSGSGSESKSTGGGGSEVQLVESGGGLVQPGGSLKLSCAASGFTFNTYAMNWVRQAPGKGLEWVARIRSKYNNYATYYADSVKDRFTISRDDSKNTAYLQMNNLKTEDTAVYYCVRHGNFGNSYVSWFAYWGQGTLVTVSAASTKGPSVFPLAPSSKSTSGGTAALGCLVKDYFPEPVTVSWNSGALTSGVHTFPAVLQSSGLYSLSSVVTVPSSSLGTQTYICNVNHKPSNTKVDKRVEPKSCDKTHTCPPCPAPEAAGGPSVFLFPPKPKDTLMISRTPEVTCVVVDVSHEDPEVKFNWYVDGVEVHNAKTKPREEQYNSTYRVVSVLTVLHQDWLNGKEYKCKVSNKALPAPIEKTISKAKGQPREPQVYTLPPSREEMTKNQVSLSCAVKGFYPSDIAVEWESNGQPENNYKTTPPVLDSDGSFFLVSKLTVDKSRWQQGNVFSCSVMHEALHNRFTQKSLSLSPG
notes: as for B1
B3: B7H6#23/CD3#1 (bispecific antibody, human IgG1, kappa, lambda, L234A L235A)
chain 1: DIQMTQSPSSLSASVGDRVTITCKASQNVGKYVAWYQQKPGKAPKSLIYSASNRYDAVPSRFSGSGSGTDFTLTISSLQPEDFATYFCQQYISYPLTFGAGTKLEIKRTVAAPSVFIFPPSDEQLKSGTASVVCLLNNFYPREAKVQWKVDNALQSGNSQESVTEQDSKDSTYSLSSTLTLSKADYEKHKVYACEVTHQGLSSPVTKSFNRGECGGGGSEGKSSGSGSESKSTEGKSSGSGSESKSTGGGGSQVQLVQSGAEVKKPGASVKVSCKASGYTFTSYWMNWMKQAPGQGLEWIGGIYLSGESTDYNEKFKGKVTMTVDTSTSTVYMELSSLRSEDTAVYYCTRRGDYFGDFWGQGTLVTVSSASTKGPSVFPLAPSSKSTSGGTAALGCLVKDYFPEPVTVSWNSGALTSGVHTFPAVLQSSGLYSLSSVVTVPSSSLGTQTYICNVNHKPSNTKVDKRVEPKSCDKTHTCPPCPAPEAAGGPSVFLFPPKPKDTLMISRTPEVTCVVVDVSHEDPEVKFNWYVDGVEVHNAKTKPREEQYNSTYRVVSVLTVLHQDWLNGKEYKCKVSNKALPAPIEKTISKAKGQPREPQVYTLPPSREEMTKNQVSLWCLVKGFYPSDIAVEWESNGQPENNYKTTPPVLDSDGSFFLYSKLTVDKSRWQQGNVFSCSVMHEALHNHYTQKSLSLSPG
chain 2: EAVVTQEPSLTVSPGGTVTLTCRSSTGAVTTSNYANWVQEKPGQLPRGLIGGTNKRAPWVPARFSGSLLGGKAALTLSGAQPEDEAEYFCALWYSNLWVFGGGTKLTVLGQPKAAPSVTLFPPSSEELQANKATLVCLISDFYPGAVKVAWKADGSPVNTGVETTTPSKQSNNKYAASSYLSLTPEQWKSHRSYSCQVTHEGSTVEKTVAPAECSGGGGSEGKSSGSGSESKSTEGKSSGSGSESKSTGGGGSEVQLVESGGGLVQPGGSLKLSCAASGFTFNTYAMNWVRQAPGKGLEWVARIRSKYNNYATYYADSVKDRFTISRDDSKNTAYLQMNNLKTEDTAVYYCVRHGNFGNSYVSWFAYWGQGTLVTVSAASTKGPSVFPLAPSSKSTSGGTAALGCLVKDYFPEPVTVSWNSGALTSGVHTFPAVLQSSGLYSLSSVVTVPSSSLGTQTYICNVNHKPSNTKVDKRVEPKSCDKTHTCPPCPAPEAAGGPSVFLFPPKPKDTLMISRTPEVTCVVVDVSHEDPEVKFNWYVDGVEVHNAKTKPREEQYNSTYRVVSVLTVLHQDWLNGKEYKCKVSNKALPAPIEKTISKAKGQPREPQVYTLPPSREEMTKNQVSLSCAVKGFYPSDIAVEWESNGQPENNYKTTPPVLDSDGSFFLVSKLTVDKSRWQQGNVFSCSVMHEALHNRFTQKSLSLSPG
notes: as for B1

What was measured:
[1] = molecular target: T1, chicken egg white lysozyme (chicken, UniProt P00698 19-147); test: SPR, 1 µM binder over immobilized lysozyme
T1 construct: unrelated positively charged protein, amine-coupled to the chip; also called Lysozyme (positive)
T1 sequence (P00698 19-147): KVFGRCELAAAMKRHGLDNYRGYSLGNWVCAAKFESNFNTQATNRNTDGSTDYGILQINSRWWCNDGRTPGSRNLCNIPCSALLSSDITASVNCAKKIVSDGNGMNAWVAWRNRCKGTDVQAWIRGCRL
How it was run: (§1)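 Non-specific binding tested with samples at 1 μM in HBS-EP at 25 °C, 5 μL/min, over lysozyme or trypsin inhibitor amine-coupled to CM5 chip (3000–5000 RU). Association 10 min, dissociation 15 min.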

[2] = molecular target: T2, trypsin inhibitor from Glycine max soybean (Glycine max (soybean)); test: SPR, 1 µM binder over immobilized trypsin inhibitor
T2 construct: unrelated negatively charged protein, amine-coupled to the chip
T2 sequence (P01070 25-205): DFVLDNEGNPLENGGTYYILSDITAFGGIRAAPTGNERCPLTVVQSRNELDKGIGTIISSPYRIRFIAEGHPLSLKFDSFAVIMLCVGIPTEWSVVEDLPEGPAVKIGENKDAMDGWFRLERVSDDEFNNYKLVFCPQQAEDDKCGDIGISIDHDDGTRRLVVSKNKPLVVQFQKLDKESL
How it was run: as §1

[3] = molecular target: T3, Cyno B7H6-His (cynomolgus monkey); test: SPR, binder captured on Protein A/G, B7H6 analyte
T3 construct: also called CyB7H6; cyB7-H6
T3 chain: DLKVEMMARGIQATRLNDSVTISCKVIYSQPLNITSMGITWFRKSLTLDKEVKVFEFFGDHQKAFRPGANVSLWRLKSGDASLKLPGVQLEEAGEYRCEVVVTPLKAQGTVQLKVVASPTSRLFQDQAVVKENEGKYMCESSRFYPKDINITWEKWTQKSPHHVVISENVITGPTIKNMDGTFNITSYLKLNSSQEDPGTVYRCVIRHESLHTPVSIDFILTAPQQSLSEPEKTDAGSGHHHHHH
How it was run: (§2)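 B7H6/CD3 binder captured (~700 RU) on a Protein A/G CM5 surface in HBS-EP+. Human or cyno B7H6 injected at 0–100 nM and human B7H1 at 0 nM and 1 μM, 300 s association and 1200 s dissociation. Data double-referenced against the reference flow cell and blank.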

[4] = molecular target: T4, Human B7H1 (human, UniProt Q9NZQ7 20-239); test: SPR, binder captured on Protein A/G, HuB7H1 analyte
T4 construct: also called HuB7H1; huB7-H1
T4 sequence (Q9NZQ7 other isoform, or with tags, fused parts or gaps limits assumed): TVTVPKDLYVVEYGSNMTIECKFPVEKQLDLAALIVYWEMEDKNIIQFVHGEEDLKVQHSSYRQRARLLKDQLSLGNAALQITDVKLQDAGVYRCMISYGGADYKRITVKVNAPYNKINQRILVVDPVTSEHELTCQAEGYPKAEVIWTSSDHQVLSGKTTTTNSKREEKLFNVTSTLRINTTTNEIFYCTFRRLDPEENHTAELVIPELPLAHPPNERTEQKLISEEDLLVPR
How it was run: as §2

[5] = molecular target: T3, Cyno B7H6-His; test: ratio of SPR KDs cyno/human
[6] = molecular target: T5, Human CD3 E+G HuFc-6xHis (human); test: SPR, CD3E+G-hFc immobilized, binder analyte
T5 construct: also called HuCD3E+G-hFc; huCD3
T5 sequence (chain, as listed by the source limits assumed): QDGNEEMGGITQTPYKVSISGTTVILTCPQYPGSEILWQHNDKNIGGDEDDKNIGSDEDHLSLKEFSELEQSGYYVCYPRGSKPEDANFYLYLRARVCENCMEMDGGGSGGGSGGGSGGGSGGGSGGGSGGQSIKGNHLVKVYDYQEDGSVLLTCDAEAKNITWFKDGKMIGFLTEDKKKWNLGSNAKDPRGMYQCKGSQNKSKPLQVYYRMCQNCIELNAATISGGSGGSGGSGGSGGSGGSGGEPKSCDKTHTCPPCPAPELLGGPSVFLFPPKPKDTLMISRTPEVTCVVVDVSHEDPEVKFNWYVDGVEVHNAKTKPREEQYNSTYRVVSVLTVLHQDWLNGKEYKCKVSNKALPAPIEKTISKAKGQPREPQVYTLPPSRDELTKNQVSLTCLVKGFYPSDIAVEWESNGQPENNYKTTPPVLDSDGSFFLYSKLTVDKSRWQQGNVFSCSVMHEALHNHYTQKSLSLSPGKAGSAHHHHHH
How it was run: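 On a ProteOn XPR36, human and cyno CD3E+G-hFc were amine-coupled to a GLM chip at 0.4, 0.2 and 0.1 μg/mL in 10 mM acetate pH 4.5. B7H6/CD3 binding protein (0–100 nM) flowed in HBS-EP+ at 30 μL/min, with 300 s association and 600 s dissociation. Interspot and blank responses were subtracted.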

Binder | Non-specific binding (RU) [1] | Non-specific binding (RU) [2] | Kd [3] | binding result [4] | cy/hu B7-H6 [5] | Kd [6]
B1 | 8.1 RU | 42 RU | 1.4 nM | no binding (tested: 1 µM) | 0.4 | 4.4 nM
B2 | 7.8 RU | 39.5 RU | 1.4 nM | no binding (tested: 1 µM) | 1 | 5.1 nM
B3 | 8.1 RU | 45.7 RU | 1.2 nM | no binding (tested: 1 µM) | 0.9 | 5.5 nM
